# From US6413730
# Target: T1, GST-hElk-L cytoplasmic domain fusion protein (GST-Elk-L cyt) (UniProt P98172)
# T1 sequence: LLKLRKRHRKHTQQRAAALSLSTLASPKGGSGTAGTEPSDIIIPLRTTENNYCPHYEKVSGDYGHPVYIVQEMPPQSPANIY
substance,measurement,value
v-Src,"in vitro kinase assay with 32P-gamma-ATP, autoradiography",A GST fusion protein containing the cytoplasmic domain of human Elk-L (residues 262-343) was tyrosine phosphorylated by v-Src in vitro
